Reference: patent publication US10500249B2, “Compositions and methods for preventing or treating diseases, conditions, or processes characterized by aberrant fibroblast proliferation and extracellular matrix deposition” (MOERAE MATRIX, INC., priority 2014, dated 2019)

What was measured:
Experiment in all cases: Kinase Profiling Assay
Type in all cases: biochemical
Conditions in all cases: 100 μM
EphA4 (h) = EphA4 (h) (Homo sapiens, UniProt P54764)
Procedure, shortened: (§1)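 Specificity of MK2 inhibitory peptides is assessed against a panel of 266 human kinases. Kinase transfers a radiolabeled phosphate from ATP onto a positively charged substrate, which is trapped on a negatively charged filter and quantified by scintillation counting against full-activity control; duplicate determinations.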

MKK6 (h) = target: T1, MKK6 (h) (Homo sapiens, UniProt P52564)
T1 construct: purchased Millipore
T1 sequence (P52564 1-334): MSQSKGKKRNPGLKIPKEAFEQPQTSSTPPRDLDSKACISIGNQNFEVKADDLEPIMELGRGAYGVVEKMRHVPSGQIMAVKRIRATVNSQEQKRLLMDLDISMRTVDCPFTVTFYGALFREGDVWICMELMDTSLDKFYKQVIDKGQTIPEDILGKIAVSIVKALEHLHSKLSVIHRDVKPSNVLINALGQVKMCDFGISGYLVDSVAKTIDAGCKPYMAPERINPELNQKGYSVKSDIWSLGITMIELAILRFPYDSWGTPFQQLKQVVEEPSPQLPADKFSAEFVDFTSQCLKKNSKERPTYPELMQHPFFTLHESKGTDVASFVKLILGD
Procedure, shortened: as §1

PAK2 (h) = target: T2, PAK2 (h) (Homo sapiens, UniProt Q13177)
T2 construct: purchased Millipore
Procedure, shortened: as §1

PKCα (h) = target: T3, PKCα (h) (Homo sapiens, UniProt P17252)
T3 construct: purchased Millipore
Procedure, shortened: as §1

SAPK2b (h) = SAPK2b (h) (Homo sapiens, UniProt Q15759)
Procedure, shortened: as §1

TSSK2 (h) = target: T4, TSSK2 (h) (Homo sapiens, UniProt Q96PF2)
T4 sequence (Q96PF2 1-358): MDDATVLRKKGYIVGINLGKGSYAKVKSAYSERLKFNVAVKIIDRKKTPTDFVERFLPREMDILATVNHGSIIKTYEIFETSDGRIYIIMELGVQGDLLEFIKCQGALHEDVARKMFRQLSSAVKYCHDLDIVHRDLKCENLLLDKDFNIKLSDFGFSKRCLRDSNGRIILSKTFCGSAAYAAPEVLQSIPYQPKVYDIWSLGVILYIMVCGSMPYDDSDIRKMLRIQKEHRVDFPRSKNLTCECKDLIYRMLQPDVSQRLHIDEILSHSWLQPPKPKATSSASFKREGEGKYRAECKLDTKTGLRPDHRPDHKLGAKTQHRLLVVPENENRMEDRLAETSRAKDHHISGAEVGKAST
Procedure, shortened: as §1

Abl (Q252H) (h) = Abl (Q252H) (h) (Homo sapiens, UniProt P00519, Q252H)
Procedure, shortened: as §1

Abl(Y253F) (h) = Abl(Y253F) (h) (Homo sapiens, UniProt P00519, Y253F)
Procedure, shortened: as §1

HIPK2 (h) = target: T5, HIPK2 (h) (Homo sapiens, UniProt Q9H2X6)
T5 construct: purchased Millipore
Procedure, shortened: as §1

JNK2α2 (h) = JNK2α2 (h) (Homo sapiens, UniProt P45984)
Procedure, shortened: as §1

MAPK2 (h) = MAPK2 (h) (Homo sapiens, UniProt P28482)
Procedure, shortened: as §1

MINK (h) = target: T6, MINK (h) (Homo sapiens, UniProt Q8N4C8)
T6 construct: purchased Millipore
Procedure, shortened: as §1

NLK (h) = target: T7, NLK (h) (Homo sapiens, UniProt Q9UBE8)
T7 construct: purchased Millipore
T7 sequence (Q9UBE8 1-527): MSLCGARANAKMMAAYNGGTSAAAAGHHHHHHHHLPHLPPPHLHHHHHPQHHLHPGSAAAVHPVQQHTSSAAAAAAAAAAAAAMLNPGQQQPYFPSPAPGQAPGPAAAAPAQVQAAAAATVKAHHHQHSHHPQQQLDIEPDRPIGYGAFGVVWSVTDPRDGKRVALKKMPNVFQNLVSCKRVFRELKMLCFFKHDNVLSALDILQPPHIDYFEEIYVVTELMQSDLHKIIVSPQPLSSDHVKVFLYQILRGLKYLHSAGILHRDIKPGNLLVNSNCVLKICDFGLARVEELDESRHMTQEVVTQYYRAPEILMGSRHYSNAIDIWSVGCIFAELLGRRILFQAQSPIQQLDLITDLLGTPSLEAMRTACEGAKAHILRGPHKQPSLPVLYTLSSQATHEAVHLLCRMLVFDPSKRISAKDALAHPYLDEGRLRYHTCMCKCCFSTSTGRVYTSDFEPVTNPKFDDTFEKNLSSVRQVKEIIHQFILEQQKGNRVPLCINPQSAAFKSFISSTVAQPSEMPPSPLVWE
Procedure, shortened: as §1

Rsk1 (h) = Rsk1 (h) (Homo sapiens, UniProt Q15418)
Procedure, shortened: as §1

SIK (h) = SIK (h) (Homo sapiens, UniProt P57059)
Procedure, shortened: as §1

Sequence of EphA4 (h) (P54764 20-986): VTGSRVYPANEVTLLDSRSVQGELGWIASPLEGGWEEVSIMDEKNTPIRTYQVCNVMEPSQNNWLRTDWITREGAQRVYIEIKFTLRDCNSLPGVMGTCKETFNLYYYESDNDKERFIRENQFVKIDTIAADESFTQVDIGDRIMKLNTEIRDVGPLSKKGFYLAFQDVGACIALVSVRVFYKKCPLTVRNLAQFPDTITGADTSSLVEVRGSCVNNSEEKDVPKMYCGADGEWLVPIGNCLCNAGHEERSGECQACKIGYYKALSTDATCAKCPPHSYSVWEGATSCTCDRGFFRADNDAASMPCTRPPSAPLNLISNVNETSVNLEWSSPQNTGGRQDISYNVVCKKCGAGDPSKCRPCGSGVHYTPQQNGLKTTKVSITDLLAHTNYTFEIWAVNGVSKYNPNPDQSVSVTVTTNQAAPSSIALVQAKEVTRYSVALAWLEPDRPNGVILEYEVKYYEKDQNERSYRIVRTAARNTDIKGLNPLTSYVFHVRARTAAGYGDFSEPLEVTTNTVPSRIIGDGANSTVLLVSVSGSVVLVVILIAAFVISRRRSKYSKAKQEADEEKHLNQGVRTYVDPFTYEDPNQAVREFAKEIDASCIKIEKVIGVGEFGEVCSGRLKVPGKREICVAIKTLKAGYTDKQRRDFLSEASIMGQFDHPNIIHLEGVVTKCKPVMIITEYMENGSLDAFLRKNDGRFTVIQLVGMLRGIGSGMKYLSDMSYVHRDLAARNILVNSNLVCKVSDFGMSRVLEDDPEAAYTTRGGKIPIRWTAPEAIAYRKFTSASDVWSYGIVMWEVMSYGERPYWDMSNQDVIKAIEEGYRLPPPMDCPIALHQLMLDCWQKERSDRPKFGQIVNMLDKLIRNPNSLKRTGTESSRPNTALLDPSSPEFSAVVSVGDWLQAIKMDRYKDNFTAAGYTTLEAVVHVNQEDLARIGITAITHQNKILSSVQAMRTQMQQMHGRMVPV
Sequence of MAPK2 (h) (P28482 whole entry): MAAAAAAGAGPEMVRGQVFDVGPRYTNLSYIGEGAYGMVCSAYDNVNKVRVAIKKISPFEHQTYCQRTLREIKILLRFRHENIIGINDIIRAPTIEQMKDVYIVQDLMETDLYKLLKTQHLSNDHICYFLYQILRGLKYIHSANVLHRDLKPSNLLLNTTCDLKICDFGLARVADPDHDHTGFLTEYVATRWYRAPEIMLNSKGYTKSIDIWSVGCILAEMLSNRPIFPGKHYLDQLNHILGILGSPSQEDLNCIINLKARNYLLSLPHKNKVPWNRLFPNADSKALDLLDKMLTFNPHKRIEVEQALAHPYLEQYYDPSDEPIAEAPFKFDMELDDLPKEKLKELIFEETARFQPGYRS
Sequence of SIK (h) (P57059 whole entry): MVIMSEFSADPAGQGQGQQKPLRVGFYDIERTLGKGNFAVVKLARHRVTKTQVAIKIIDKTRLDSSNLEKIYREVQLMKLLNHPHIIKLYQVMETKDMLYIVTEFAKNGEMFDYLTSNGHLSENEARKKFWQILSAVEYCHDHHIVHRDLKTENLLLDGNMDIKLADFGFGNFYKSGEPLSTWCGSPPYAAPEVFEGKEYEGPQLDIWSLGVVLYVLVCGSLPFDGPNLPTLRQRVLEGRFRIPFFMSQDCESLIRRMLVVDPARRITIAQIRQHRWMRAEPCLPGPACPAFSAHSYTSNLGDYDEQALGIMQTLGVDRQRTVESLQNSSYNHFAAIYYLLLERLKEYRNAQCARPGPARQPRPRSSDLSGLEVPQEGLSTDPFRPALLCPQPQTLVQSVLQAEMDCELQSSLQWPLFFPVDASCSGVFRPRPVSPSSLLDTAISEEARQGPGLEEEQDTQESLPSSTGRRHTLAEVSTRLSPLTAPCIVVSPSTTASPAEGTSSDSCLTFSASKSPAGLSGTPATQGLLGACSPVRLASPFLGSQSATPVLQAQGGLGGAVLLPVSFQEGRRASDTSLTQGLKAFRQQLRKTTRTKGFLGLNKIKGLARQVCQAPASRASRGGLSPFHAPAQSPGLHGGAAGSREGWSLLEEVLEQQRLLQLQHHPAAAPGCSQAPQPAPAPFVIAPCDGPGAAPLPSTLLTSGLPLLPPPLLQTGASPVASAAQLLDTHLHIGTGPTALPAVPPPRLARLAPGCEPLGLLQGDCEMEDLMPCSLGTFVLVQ
T2 sequence (Q13177 whole entry): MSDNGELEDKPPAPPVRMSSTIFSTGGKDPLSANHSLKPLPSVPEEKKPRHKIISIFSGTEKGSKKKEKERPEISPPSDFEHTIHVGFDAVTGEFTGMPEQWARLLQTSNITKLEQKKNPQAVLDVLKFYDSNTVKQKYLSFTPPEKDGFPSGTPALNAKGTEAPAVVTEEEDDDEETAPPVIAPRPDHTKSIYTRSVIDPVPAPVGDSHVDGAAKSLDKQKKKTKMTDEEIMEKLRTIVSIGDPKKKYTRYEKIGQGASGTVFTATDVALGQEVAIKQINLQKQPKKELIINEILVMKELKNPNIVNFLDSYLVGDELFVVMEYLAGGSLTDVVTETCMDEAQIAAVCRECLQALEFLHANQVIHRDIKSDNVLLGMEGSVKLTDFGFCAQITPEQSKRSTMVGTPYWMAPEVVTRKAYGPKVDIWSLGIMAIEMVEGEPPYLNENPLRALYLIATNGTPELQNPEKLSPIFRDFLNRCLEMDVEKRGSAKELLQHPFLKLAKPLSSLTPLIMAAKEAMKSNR
Sequence of SAPK2b (h) (Q15759 whole entry): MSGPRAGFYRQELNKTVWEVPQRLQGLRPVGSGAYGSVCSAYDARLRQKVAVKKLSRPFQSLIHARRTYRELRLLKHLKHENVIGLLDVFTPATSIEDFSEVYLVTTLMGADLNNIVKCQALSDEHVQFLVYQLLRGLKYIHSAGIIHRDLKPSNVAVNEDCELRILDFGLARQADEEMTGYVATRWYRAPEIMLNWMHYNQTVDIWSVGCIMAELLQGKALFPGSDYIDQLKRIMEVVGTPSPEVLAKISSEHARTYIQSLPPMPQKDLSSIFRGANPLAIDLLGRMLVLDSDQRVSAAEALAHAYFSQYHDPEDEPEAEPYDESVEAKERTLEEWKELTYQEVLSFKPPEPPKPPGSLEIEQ
Sequence of Rsk1 (h) (Q15418 whole entry): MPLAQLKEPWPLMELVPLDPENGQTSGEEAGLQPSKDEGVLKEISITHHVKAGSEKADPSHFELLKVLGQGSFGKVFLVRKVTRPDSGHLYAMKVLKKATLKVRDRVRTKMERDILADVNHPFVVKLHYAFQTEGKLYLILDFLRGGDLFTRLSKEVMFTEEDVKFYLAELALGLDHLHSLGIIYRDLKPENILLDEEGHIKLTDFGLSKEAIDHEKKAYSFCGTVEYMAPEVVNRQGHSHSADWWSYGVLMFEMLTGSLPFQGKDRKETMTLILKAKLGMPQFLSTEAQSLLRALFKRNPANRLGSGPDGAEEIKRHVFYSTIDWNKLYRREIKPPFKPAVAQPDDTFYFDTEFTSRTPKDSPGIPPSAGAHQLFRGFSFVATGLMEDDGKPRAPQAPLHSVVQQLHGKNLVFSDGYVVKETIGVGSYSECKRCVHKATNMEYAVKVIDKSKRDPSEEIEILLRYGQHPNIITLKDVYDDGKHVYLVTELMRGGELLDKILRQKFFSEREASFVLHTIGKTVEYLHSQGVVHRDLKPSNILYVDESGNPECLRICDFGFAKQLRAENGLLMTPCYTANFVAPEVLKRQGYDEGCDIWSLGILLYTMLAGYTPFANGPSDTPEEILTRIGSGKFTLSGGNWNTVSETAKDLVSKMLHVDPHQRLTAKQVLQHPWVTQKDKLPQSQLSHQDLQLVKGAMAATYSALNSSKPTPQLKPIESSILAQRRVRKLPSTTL
T5 sequence (Q9H2X6 whole entry): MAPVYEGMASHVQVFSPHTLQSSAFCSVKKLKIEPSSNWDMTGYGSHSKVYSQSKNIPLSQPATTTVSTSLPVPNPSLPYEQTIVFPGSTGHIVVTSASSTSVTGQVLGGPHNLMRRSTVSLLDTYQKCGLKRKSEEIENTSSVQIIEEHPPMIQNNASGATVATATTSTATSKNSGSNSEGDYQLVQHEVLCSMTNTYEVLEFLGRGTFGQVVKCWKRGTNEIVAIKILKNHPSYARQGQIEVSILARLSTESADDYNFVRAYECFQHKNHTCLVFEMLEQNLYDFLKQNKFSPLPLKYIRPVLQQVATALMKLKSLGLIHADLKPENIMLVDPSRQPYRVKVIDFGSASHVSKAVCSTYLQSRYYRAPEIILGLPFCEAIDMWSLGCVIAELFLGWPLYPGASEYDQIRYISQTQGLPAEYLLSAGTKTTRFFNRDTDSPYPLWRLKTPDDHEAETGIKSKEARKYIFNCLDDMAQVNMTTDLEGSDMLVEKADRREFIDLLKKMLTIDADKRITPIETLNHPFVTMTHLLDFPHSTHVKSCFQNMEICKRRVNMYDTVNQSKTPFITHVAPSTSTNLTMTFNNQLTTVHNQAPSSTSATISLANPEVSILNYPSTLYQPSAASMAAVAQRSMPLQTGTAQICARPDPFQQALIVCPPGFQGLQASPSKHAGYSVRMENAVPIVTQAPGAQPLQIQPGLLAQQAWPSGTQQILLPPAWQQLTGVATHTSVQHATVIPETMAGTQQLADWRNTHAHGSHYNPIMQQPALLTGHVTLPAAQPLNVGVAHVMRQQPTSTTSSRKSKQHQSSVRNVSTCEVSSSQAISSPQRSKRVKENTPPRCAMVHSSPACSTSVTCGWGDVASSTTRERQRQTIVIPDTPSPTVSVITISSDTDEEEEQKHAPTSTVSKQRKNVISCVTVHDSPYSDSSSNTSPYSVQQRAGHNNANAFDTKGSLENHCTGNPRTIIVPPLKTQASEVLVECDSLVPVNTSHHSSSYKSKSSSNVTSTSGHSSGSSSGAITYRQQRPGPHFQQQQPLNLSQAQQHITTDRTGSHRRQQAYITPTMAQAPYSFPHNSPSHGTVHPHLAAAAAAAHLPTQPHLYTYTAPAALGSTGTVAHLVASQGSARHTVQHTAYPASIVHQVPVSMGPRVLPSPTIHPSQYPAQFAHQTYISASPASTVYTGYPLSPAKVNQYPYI

Sequence	% activity (EphA4 (h)) [%]	% activity (MKK6 (h)) [%]	% activity (PAK2 (h)) [%]	% activity (PKCα (h)) [%]	% activity (SAPK2b (h)) [%]	% activity (TSSK2 (h)) [%]	% activity (Abl (Q252H) (h)) [%]	% activity (Abl(Y253F) (h)) [%]	% activity (HIPK2 (h)) [%]	% activity (JNK2α2 (h)) [%]	% activity (MAPK2 (h)) [%]	% activity (MINK (h)) [%]	% activity (NLK (h)) [%]	% activity (Rsk1 (h)) [%]	% activity (SIK (h)) [%]
YARAAARQARAKALNRQLGVA (Mammalian) [MMI-0200]	127	98	69	100	95	91	–	–	–	–	–	–	–	–	–
HRRIKAWLKKIKALARQLGVAA (Mammalian) [MMI-0500]	48	18	44	3	42	92	40	29	38	81	60	5	19	34	40
FAKLAARLYRKALARQLGVAA [MMI-0300]	88	48	65	89	81	98	82	86	73	98	98	48	87	46	66
KAFAKLAARLYRKALARQLGVAA [MMI-0400]	65	44	59	86	82	94	98	78	90	96	93	52	90	54	68
